assay: soluble fraction after stress (log2 fold change); higher = more stays soluble; pooled small domains, quantitative proteomics; details: stress: pH 4
In short: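 Custom libraries of small protein domains were pooled and exposed to pH 4. High-throughput quantitative proteomics then measured the log2 fold change in the amount of each domain still soluble, with higher values meaning more stayed soluble. This soluble-fraction fold change stands for aggregation propensity.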

Going from “HMGYDSYDADTIPKLKIGSIVEHPKFGEGSIISKAGAEVTIAFKIKGVKKINLEYTSIKVLK” to “HMGYGEQEQEAQKYLALHALMSQDPTLAKMYQAPNQYKLMSHVMEQNGIKNVNDYLTDPQQLP”, the “soluble fraction (log2)” value falls from 0.117 to -0.161.

“HMGYKDIDKLSGVDLAIYRFIVEHDEQIPYMRVRELARGAHVSNSSVMRFIRKIGYDSFPEFKVSLRS” and “HMGYPGLGSIGSKPLGDLLFQSKLFVKTKREFAEFKMANNNIVWGRRTQYLVRNYPLSVMEVFL” are within 0.2 log units of each other in “soluble fraction (log2)” value: -0.322 for the first, -0.348 for the second.

Compared with “HMHAGQIISQKIKESGISISHVAKHLKVQRATLYNLFEREVWPAHRLRTIEALLHIDLSDLYP”, “HMHANAALTPRQRLRLAQKIVDEEWTVAAAADYFRVSWPTAAKWARRYVELGEAGMADRSSRP” is higher in “soluble fraction (log2)” value: -1.52 for the first, -0.641 for the second.

First: HMHDEKHHQLANEIARKWAALRGNRDFAAADELKNLAAEAGVELQATKQAVGQGALAKLKENFDPVKLEAL
Second: HMHDLDALTGLSGEARSKVYEEGSVFVAGEMWSAKSDAVIPAGSSIRVVRREGFILVVEKDS
The “soluble fraction (log2)” value of the first is higher: 0.22 for the first, -1.97 for the second.

First: HMHDYTTIIGVIELRLNKISYDNVQKRYRIGRSGISLIMERYRDSGLSLDDLKQMPAEKVVNLIYPKD
Second: HMHDYYDSIDAVTHDKSYESNLVFALKLGYTETQLQKALLKLGKKAREDQILEELIRIQKSSKA
The “soluble fraction (log2)” value of the first is lower: -0.108 for the first, ≥ 0.43 for the second.

“HMHEGNWTLPNPMPIGTTLTLPEHSRLYISNLAGQRVFETSATSVEIPLLPKGTYLLRLETMNGHTTRKIL” and “HMHELKIEKVAEAPNGAMRLLLSDGSEWVLGVKSWNRLNLSLEKILDVNVLRALEKESQYHLLRTKALEL” are within 0.2 log units of each other in “soluble fraction (log2)” value: 0.00873 for the first, 0.171 for the second.

Compared with “HMHFIMEYRIRAYVDELFESAPRTQRAYELKIELTQNLIDKYYALVSEGKSEQDAYNLTVMSIGDVREL”, “HMHGEAVVVPNVKGLPMRQAENEIYKQSLKAVAIDSSYVKGMPPGAILEQNPAGGSKVKKGRTVYLTINMD” is higher in “soluble fraction (log2)” value: -0.959 for the first, 0.0278 for the second.

First: HMHGERVVTAGQTVRVVFTSNGLQVSSEGKALAAGAVGDDIQVRAASGKVIRGTVTGPGVVQV
Second: HMHGLNQNKPIPIADIVNSVNNYLTSLGKKTITDNSVLSNLKKAAKYLNTAYNLVLRPDSLNMTVTLL
The “soluble fraction (log2)” value of the first is higher: ≥ 0.43 for the first, 0.22 for the second.

Compared with “HMHIMINPDQLSPEQIQSIRTWAEEGLDLNAIQKRLHEDLNIKLTFMDTRFLLQDLDIRIRQPEPEPEAEQ”, “HMHINLEGLKKIDFRKKIGFLFGSEASGLSNKEVSYANYTLQIPTNINFKSLNLSHSLIIIAQFISSLLNS” is higher in “soluble fraction (log2)” value: -0.67 for the first, 0.126 for the second.

Compared with “HMHKIRRQTKITKSLLDQIEGIGSSRKKALLNHFGSAKAVGEAGETDLGTVKGISNSLAKKIYDFFHAT”, “HMHLDIGQLVQRILADIQVGKLADGQRKLPAEPVLMERYQVTRYTLRQALKQLSNMGYTYQMHGIGTFVRQ” is lower in “soluble fraction (log2)” value: 0.281 for the first, -0.211 for the second.

First: HMHLKDEHGLTPKQRAFADEYVITLNATVSYKKIYSVKRDSVASTNGSRLLGNANVKAYIDKRLEE
Second: HMHLKRQEAINLGAYLLGAELRIHRLSLEELGSERIDEMLAAINYKTLDDLLADIGLGNRPARFVARQLG
The “soluble fraction (log2)” value of the first is higher: 0.172 for the first, -1.65 for the second.

First: HMHLLGASIAAYRKKAGMTQEDLGRALFVSGQAVSRWERGGTPDSDMLPKIADVLGISLDTLFGRS
Second: HMHLRYTYIYDNENRVTSKEASKWDSTQEAWVPYFKMNVSYVNNEVELSYARWNSKSNAYDSSIKKTI
The “soluble fraction (log2)” value of the first is higher: -0.269 for the first, -0.66 for the second.

“HMHLTNIPKGFTPSFDTKQWIVEEFGERYNYDNELKIFINHYRASGTTKSDWQYAFRSWLLRAKKFT” and “HMHLTRYLHTMIRAANLDDTLDFFVEKLGLIEAYRYSNEAGRFTLVFLSAPDDLESAQSRQAPLVEITYN” are within 0.2 log units of each other in “soluble fraction (log2)” value: -0.448 for the first, -0.329 for the second.

Going from “HMHLYDMYNLTEKEISIIRLIANGLNNKEISQELFLSEGTIKNNITNILAKLELRDRTQLAIFAFKNKIVI” to “HMHMELHEKIRLARELNKWSQEEVAEKLEMSPSGYAKIERGETALNIPRLEQIAEIFNIDIWELVKA”, the “soluble fraction (log2)” value falls from -0.647 to -1.48.

First: HMHMHTADDFKQLAKHTSNGRLRTRYLALYHFKKGETRTQIAAYLGVARGSVNTWVSNYLAYGLEGLQS
Second: HMHMIDDYLARIGQLIRDARQHRGWTQVQLAEALGTSQSAVNRIERGNQNISLEMIARIGEALGSEIVSLG
The “soluble fraction (log2)” value of the first is higher: -0.0479 for the first, -0.64 for the second.

Compared with “HMHMKTIEWDSLVLIMYKDMKYLKRINEGQSFHGKGGMLNYADLIGKTYGIRFGQYEIFEPSLEDIVMYG”, “HMHMSKKLADSISALRKKNGLSQEQLAEKIGISRQTVSNWERGIATPDVETLNLISKLFDEDLSVMING” is higher in “soluble fraction (log2)” value: -0.569 for the first, 0.043 for the second.

“HMHNISQTGRRIAGMTQERWAEALDISVESVRLYESGRGMPSDDVATRMVEVSGAPVLGYWH” and “HMHNPSYDMSKDVDILVMKFRDYNNLTDDEARFLLDKAKDAYYNTGKEILSDNEYDTLEKSLGQE” are within 0.2 log units of each other in “soluble fraction (log2)” value: -1.08 for the first, -1.17 for the second.

First: HMHPEPDPVLFIDGKEYPYDKLSELDETRVQSMTILPKKSAVKKYGDKYANRSIMEITLKKEN
Second: HMHPNPLTEQEIAVLKGIAQGLSNQEIADQLYLSNGTVRNYVTNILSKLDAGNRTEAANIAKESGW
The “soluble fraction (log2)” value of the first is higher: 0.22 for the first, -0.279 for the second.

Going from “HMHPSNQELTKVLAQGSELVLAQKYIEASQIFTRVIEIDQTWAEAWNKRATVFYLLQNYEASQKDIDEV” to “HMHQKELLNLSYKEAKRYILDDFERVFFTNLLRKTGGNVSRAAQLAQVHRKNLYVKLTELGIDPRQFG”, the “soluble fraction (log2)” value falls from -0.135 to -0.585.

First: HMHQLQLDSRSRLHMTGVIEVESFDEATIVLTTTRGTLIVRGENLHLQLLRLDGGEVLVDGTVDSLSYE
Second: HMHQPPDLDDFEAFVGRVKPALLQALVATYGPVDGREATVDALSWAWEHWDRLADVDHPVGYLYRV
The “soluble fraction (log2)” value of the first is lower: -1.22 for the first, -0.189 for the second.

First: HMHRFAVLDTVREVAAGGVAATLSIGVGRDADSFDALFKNASMALEMALSRGGDQAVVKDRMNFQFYGG
Second: HMHRGEIVDGVIASVNPRSILIDIGGKSDALVHPRELERMSDEDLRSLKPGQDVSVYVIETDSDGTMLVSL
The “soluble fraction (log2)” value of the first is higher: -0.0192 for the first, -0.86 for the second.

Compared with “HMHSEISGGSKDPFRFMPHLGVEDIHAETDRLSGSGVEFIREPDQESWGGWVATFKDPDGNILQLLQL”, “HMHSQVFTDPDKAKNAVVKLGAPLVVKADGLALGKGVIIAQNPQAAKEAVASVGSSGISSISVT” is higher in “soluble fraction (log2)” value: -0.0468 for the first, 0.22 for the second.

Going from “HMHTDDDGITEAFPHLRLLSLGEDILDLLEKSRFIRKLNNELVYYVVDFREQNSIDGRRYHPSIYHNL” to “HMHTGEVVNGKVIDVKEDQIILNVGFKSDGIITRSEYSNDNSLDLRTVVNVGDDMEAKVLKINDGEGQVLL”, the “soluble fraction (log2)” value rises from -1.31 to -0.343.

Going from “HMHTGLAELTDRERDVLRLIATGMTNAAIGSALAYSPSTIRADTVSIYRKLEVRGRAEAAAVAVAAGLTQP” to “HMHTPSGALLSAIEKEWGSFDNFKKEFTTAATSLFGSGWVWLAKDKKGKLYILSENNAGNPITKGYTPILG”, the “soluble fraction (log2)” value falls from 0.123 to -0.432.

Compared with “HMHVLNEEYYNRIKAIQFTMNHDDGNSLNDIEKSDIILLGVSRTSKTPTSIYLANRGLRTSNIPLINEK”, “HMHVSLADQAYKTIRTNILNLTYPPGTQLTEAKLASDLNMSRSPVRTAIKMLQADGLLVSDYYKSMTVK” is higher in “soluble fraction (log2)” value: -0.316 for the first, ≥ 0.43 for the second.

“HMHVYSYPAAVKIKNAVGREMMVTLLGRSGTHVQFARQDGEEFVYPISSLDLAAQTLISKYPNDGIKN” and “HMIAALEGKQAMVLDQVSLHHGQVKLGGEVWTARPLNDQDVYEPGDRVTVMRIDGATAVVWRN” are within 0.2 log units of each other in “soluble fraction (log2)” value: 0.0689 for the first, -0.0548 for the second.

“HMIAASPVGGIDRVLELLDARGQRVAWIEASGTEGGQRLRLGWIDAQGAERHGAWVPWSADDLLLYA” and “HMIAASQVLRDARQRSRLTQAELGRRADVPQSVISAYESARREPSVDMLARLVAAAGFDLRIGLTP” are within 0.2 log units of each other in “soluble fraction (log2)” value: -0.547 for the first, -0.377 for the second.

First: HMIADPLVINKLMDSMALAINDYNPDSVEPVLDELRQYFSENQLRELSKAMDDFDFDEALNALTLLRT
Second: HMIALKNLREEKRMTQAELSKDLEISPSAIGMYEQGRRVPDVSTLKKISAYFNVSIDYLLGNSTSKDI
The “soluble fraction (log2)” value of the first is lower: -0.619 for the first, -0.0244 for the second.

Compared with “HMIALLRLGTAPDIKAQAPLATILARHNGEMSAKDLWQRFGGEIDTFYAQLKTEVAHGWILEPT”, “HMIAVLKQGVSKQQVENLITWFRSRGLDVHISEGKFQTIIGLIGDTSKVDIDLLNGLEIIESVKRI” is lower in “soluble fraction (log2)” value: 0.0698 for the first, -0.832 for the second.

Going from “HMIAVSQEQIKQIIVDDPSFHDANGKFSQALLTQYLNQRRMSEDQFVEEIRDQFLFQNLQNLVQNG” to “HMIDAAHLEKAILSLPEGARAVFVLIETEGFAHREVAELLGISEGTSKSQLNYAKKRLREILV”, the “soluble fraction (log2)” value rises from -0.623 to -0.0621.

First: HMIDAKTTLQELTQKSGKKPEYRLIKIEGPDHLRRFTVEVFIDGQSMGTGTGHSKKEAEQNAANFALKNLQ
Second: HMIDEQDLKKYILISTSVEELTDYLGATDRMLYDYLYSLKHVGQYWQLNERFLLDLYKLPNLVIVDKEDLE
The “soluble fraction (log2)” value of the first is higher: ≥ 0.43 for the first, -0.351 for the second.

“HMIDFDEQGNLWVHEMGPRHGDELNLIEKARNYGYPTVSQGDHYSGVKISNHEDIPIFKSPEKAWVPAISP” and “HMIDFDHADIERLWNSIIHYVPERQKLDFAIDFIKSLEDIGVEHDVLRGSAELDPKLEEAVNTVFE” are within 0.2 log units of each other in “soluble fraction (log2)” value: -0.373 for the first, -0.315 for the second.

First: HMIDIIEYIISEESKGLRADQGIALQNPQYSRSLIQKWIKKGSVLVNNKIIRTKEILLEGDKISITPEENI
Second: HMIDKIRYPELIMKLAHQQGGTIKRRDVEQLLHLQTKQAYRELSKLVDAGELVSVGRGPGAHYEVS
The “soluble fraction (log2)” value of the first is lower: -2.29 for the first, -0.0885 for the second.

Going from “HMIDQNEDLLSGYIDEVLSQNPDKVNEYLKGKSGLIGFFMGQIKQKSATALDAALLKSQLETALEKLRIK” to “HMIDQSVVVQYLSKLTNTPYLKTREITMGEPYMQFERGEIKFQEYVEDIRALLPGGDRIDADRLRDIWMNS”, the “soluble fraction (log2)” value falls from -0.00948 to -0.721.

Compared with “HMIDRADLWEALRKLPEDTLKLFSLHFEKGMTHDEISKHTDIPVGTVKTKLRRGLIEARKLAREF”, “HMIDTPQELARLLRLLDEQNFEAEILFHKLRPDLLHLWSKEHVTRIAEALDAFDYQMALTLLNASP” is lower in “soluble fraction (log2)” value: -0.394 for the first, -2.15 for the second.

Compared with “HMIDVNLVQRGKTLHLRRRVPMRYSSVERREYVSISLKTDSEAEARRKAGAAWDQMIAAWEARLA”, “HMIDYTDTSAVKDSAAVAGRVREMINEGVPIADVNAFIRSASENGLISDDSARRLRYMNDSR” is higher in “soluble fraction (log2)” value: -0.12 for the first, ≥ 0.43 for the second.

Going from “HMIEDMTINIEERLSLNGDIKKSEYILQYIKPDFIRKVILSPELNKGEIYIYDSKKKVMYLPLFDQVSEEI” to “HMIEINNLEDLKLMKEFILKNGKYGFGVFVGGKYIGLSDIGSVNSFKDTLGLPVVSLGNDDFKRFTEAH”, the “soluble fraction (log2)” value rises from -1.09 to -0.653.

In the case of “HMIEQEQAFLEQVLKKYSQEELVLTVGSRTLVKYSAGQLERLLEHYPHVRLASSPVNGEAGFLLSRG”, the “soluble fraction (log2)” value is reported as -0.784.

Source: the domain aggregation screens of Martell et al. (2025)
